In paper PMC4670554 (Nuclear medicine and biology, 2014):

Tests used:
in vivo = assay: in vivo; parameters: species or system mice; settings: female, athymic nu/nu nude, mouse, total radioactivity
U87MG gliobastoma tumors = assay: in vivo; parameters: species or system mice; settings: mouse

N=C(N)NCCC[C@@H]1NC(=O)[C@H](CCCCNC(=S)Nc2ccc(CCCCCC(CN3CCN(CC(=O)O)CCN(CC(=O)O)CC3)N(CC(=O)O)CC(=O)O)cc2)NC(=O)[C@@H](Cc2ccc(O)cc2)NC(=O)[C@H](CC(=O)O)NC(=O)CNC1=O (stereo partly shown) [^177Lu-5p-C-NETA-c(RGDyK), metal not drawn]
tissue uptake at 4 h (in vivo; 100 ug, Tumor uptake, blocked): 0.6 ± 0.14 %ID/g | tissue uptake at 1 h (in vivo; Liver uptake): 1.59 ± 0.22 %ID/g | tissue uptake at 24 h (in vivo; Liver uptake): 0.32 ± 0.06 %ID/g | tissue uptake at 1 h (in vivo; Radioactivity in the blood): 0.46 ± 0.06 %ID/g | tissue uptake at 4 h (in vivo; Tumor uptake): 1.15 ± 0.27 %ID/g | tissue uptake at 24 h (in vivo; Tumor uptake): 10.7 ± 0.38 %ID/g | Radioactivity in the blood (U87MG gliobastoma tumors): completely cleared
